Columns and labels:
[1] = Protein release from gels comprising anionically and cationically charged microparticles (release buffer, 37° C., BCA Protein Assay); type: physicochemical; settings: for time to reach a release of 50% of protein: HEPES pH 7 isotonised with NaCl, 37° C.
Experimental: To each of the gels prepared according to example 5, 1.5 mL release buffer (HEPES, pH 7, 100 mM, isotonised with NaCl) was added. Subsequently, the cups were incubated at 37° C. Samples of 1.0 mL were taken at various intervals and replaced by 1.0 mL fresh buffer. The protein concentration in the samples was measured […] using the BCA Protein Assay.
Gels loaded with IgG were prepared in analogy to example 5 and tested in analogy to example 6, except that IgG was used as a model protein instead of lysozyme and BSA.

[2] = Incorporation of protein into charged microparticles; type: physicochemical; settings: neutral or physiological pH

Row | Substance | protein released ([1]; after about 60 days, gels prepared in analogy to example 5) | release rate compared with the other model proteins ([1]; gels of oppositely charged microparticles) | time to reach a release of 50% of protein ([1]; 12.5%-gel (solid content about 12.5%)) | time to reach a release of 50% of protein ([1]; 25.5%-gel (so in the source)) | incorporation into negatively charged microparticles [2] | incorporation into positively charged microparticles [2]
1 | IgG | approx. 50% | substantially slower | – | – | – | –
2 | lysozyme | – | – | about 20 h | about 85 h | easily incorporated | not very efficiently incorporated
